According to publication PMC3858558 (2013):

Legend:
[1] = molecular target: T1, [D-Trp6]LHRH (Homo sapiens, UniProt P01148, D-Trp6 analog, 125I-labeled radioligand); experiment: radioligand competition assay, tumor membranes (patient 30)
[2] = molecular target: T1, [D-Trp6]LHRH; experiment: radioligand competition assay, tumor membranes (patient 6)
[3] = molecular target: T1, [D-Trp6]LHRH; experiment: radioligand competition assay, tumor membranes (patient 9)
[4] = molecular target: T1, [D-Trp6]LHRH; experiment: radioligand competition assay, tumor membranes (patient 4)
[5] = molecular target: T1, [D-Trp6]LHRH; experiment: radioligand competition assay, tumor membranes (patient 35)
[6] = molecular target: T1, [D-Trp6]LHRH; experiment: radioligand competition assay, tumor membranes (patient 12)
[7] = molecular target: T1, [D-Trp6]LHRH; experiment: radioligand competition assay, tumor membranes (mean of 7 specimens)
[8] = molecular target: T1, [D-Trp6]LHRH; experiment: radioligand competition assay, tumor membranes (patient 15)

B1: type I LHRH receptor (protein)
chain: MANSASPEQNQNHCSAINNSIPLMQGNLPTLTLSGKIRVTVTFFLFLLSATFNASFLLKLQKWTQKKEKGKKLSRMKLLLKHLTLANLLETLIVMPLDGMWNITVQWYAGELLCKVLSYLKLFSMYAPAFMMVVISLDRSLAITRPLALKSNSKVGQSMVGLAWILSSVFAGPQLYIFRMIHLADSSGQTKVFSQCVTHCSFSQWWHQAFYNFFTFSCLFIIPLFIMLICNAKIIFTLTRVLHQDPHELQLNQSKNNIPRARLKTLKMTVAFATSFTVCWTPYYVLGIWYWFDPEMLNRLSDPVNHFFFLFAFLNPCFDPLIYGYFSL
**Q.** B1 was tested. Which Kd [1] did it give?
**A.** Its Kd is 6.36 nM.

**Q.** What about the Kd [2] of the same binder?
**A.** The Kd was 1.37 nM.

**Q.** And the Kd [3]?
**A.** Its Kd is 3.73 nM.

**Q.** And the Kd [4]?
**A.** The Kd was 1.35 nM.

**Q.** What about the Kd [5] of the same binder?
**A.** The Kd was 2.18 nM.

**Q.** What about the Kd [6] of the same binder?
**A.** The Kd was 6.03 nM.

**Q.** And the Kd [7]?
**A.** The Kd was 3.69 nM.

**Q.** And the Kd [8]?
**A.** Its Kd is 4.81 nM.
